Consider 16 sequences from the DeepSol protein solubility set.

The data set can be described thus: soluble on expression in E. coli; label from the status in PepcDB or PDB records.
With “MGSDKIHHHHHHMVVESGFTAAQLPWLEGPRQAFLAQLTRQKMPHAQLVGIDSAYGGELLSVFMARAAMCLQPTPAGACGFCKSCQLFDAGNHPDFYHIAADGNQIKVDQIRELCTRLTATAQQSGMRVAIIHHSERLNSAAANALLKTLEEPGKDTLLILQSDTPARLMATVGSRCQRIPFVVPSREIIKNWLAQQCDIKEDVTWCLSVVGGPLQLAESLQSEGGQQSRYQSLLQFRKDWAQSLSSGHLCASLLTISEQQIIDVLKVLYLLIRQVLLKNSHQDAFIHAQLGNLAAKIMGMCHSLSTMPSVNYLALCQSYVLEYREITNK”, the “soluble on expression in E. coli” value is listed as “not soluble”.

“MGSDKIHHHHHHMEKIVQTAGRNALGEFAPEFAHFNDDVLFGENWNNQDIDVKTRSIITVVALMASGITDSSLIYHLQNAKEHGVTQKEIAAVITHVAFYAGWPKAWAVFNLAKEVWEAGEGDLPYEEEAMRAHAKEMAFPIGAPNDGFAQYFSGRSFLAPISTSQIGIFNVTFEPGCRNNWHIHHAKSGGGQILVCVAGRGYYQEEGKEAVEMKPGDCINIPTGVKHWHGAAPDEWFSHLAIEVPGVDCSNEWCEAVSEKEYAGLR”: the “soluble on expression in E. coli” value is listed as “not soluble”.

As to “MRNIQPRRLVTASGQPIVIRTAWPEDAERIVAFVKAVTAEALYLLTTEAEVTVTEDQQRQWLQKMADDPGKLALLAEHDGEMIGFLDFHNGNKRFRHEREKRLSRPGDRHGVACSAP”, the “soluble on expression in E. coli” value was “not soluble”.

With “MAHHHHHHMNKTNEVDDWTEWLDDDDEKREDEFHIDSTKDEAIKKKILQNNLDDIADFLDIGDNKKKKVEETENKVKPKVTEKIITLESTPLNSIKDCETLGEILAGRIRKCKAKSVALERFISIIITASESKLEDKDLLTVSRKLQEMVSQREKKKRYAQINKKKPNEVKNSIKNYEDEVDMIYGDLSYDEDDYEEEVVDEYLENF”, the “soluble on expression in E. coli” value is “soluble”.

On to “MSLEKKTLLTHCPDAPGLISKITNICYKHQLNIIHNNEFVDNASGHFFMRTELEGYFNDATLLADLDHALPQGTRRKLISSSRKRIVILVTKEAHCLGDILMKNYDGSLDVDIAAVVGNYDTLQRLTERFDIPYHCVSHEGLSREAHEQALLDVIDQYQPDYLVLAKYMRVLTPAFVERFHHKIINIHHSFLPAFIGAKPYQQAYERGVKIIGATAHFVTNDLDEGPIIKQDVIPVDHTFSAQDMAQAGRDVEKNVLSKALNKVLNDHVFVYGNKTVILERHHHHHH”, for which the “soluble on expression in E. coli” value was “soluble”.

Regarding “MSLTKDLLSELIQKHRSFNLSYSAYKQLYEGDHAILQQKQKEQYKPDNRLVVNFAKYIVDTFNGYFIGVPVQTSHENKQVSNYLELLDGYNDQDDNNAELSKICSIYGHGYELVFNDENAEVGITYLTPLEGFIVYDDSIRQKPLFAVRYFYNKDGVLEGSYSDASKITYFKDGEKDLEIGESDPHPFDGVPMIEYVENEERQSLLASVVTLINAFNKAISEKANDVEYFADAYLKILGAELDDETLKSLRDTRIINLKDTDAQQLTVEFLQKPDADATQEHLLDRLENLIFRTAMVANISDESFGTASGIALRYRLQAMDNLAKTKERKFMSGMNRRYKLIASYPTSKIGPKDWIGIKYKFTRNLPANLLEESQIAGNLAGIVSEETQVGVLSIVENPQKEIEKKNSDRPTLISRKAGGLNGQDTTTVLEGHHHHHH”, the “soluble on expression in E. coli” value is reported as “not soluble”.

For “MSLRYLSESKVAIKHSNDLNGSNLNVALLMGAGNPSSAEDALYLKEYINSPDMLAVLDKQLDFRQAFGHSGWDFFYHLSDSATREQFLNYYRNRISVSYDDKTGLLTIGTQGFSPEFAQKFNQAVLKESERFINEEGHHHHHH”, the “soluble on expression in E. coli” value is given as “soluble”.

Turning to “SSEELLKQALQQAQQLLQQAQELAKKGGGEELLKQALQQAQQLLQQAQELAKKGGGGEELLKQALQQAQQLLQQAQELAKKGGGEELLKQALQQAQQLLQQAQELAKK”, the “soluble on expression in E. coli” value is listed as “soluble”.

On to “MTLSKRLALLGAQSAITLAKPRGLGSSLGLLDRRPFPYRQFSELTKANGRRAFLVDTLALVRSLEAQGVPSKQAEAITSAITEVLNDSLENVSESFVSKAEMQKIEMIQDSNLSKFKSEVKSSQEHHFTVLQRETEKLRGDIEKMRSELRYEIDKVTAGQRLDLNLERGRIRDELANQNTETTNLTNKLDREIHALRAQLEASKYEVIKYCIGTLVSISAVGLAVLRIMI”, for which the “soluble on expression in E. coli” value was “not soluble”.

“MGSDKIHHHHHHMIDVEEILSKMNLNQKINYDRVMQKMVQVWEKNEQRPTILMHVCCAPCSTYTLEYLTKYADVTIYFANSNIHPKAEYHKRAYVTKKFVSDFNERTGNSVQYLEAPYEPNEYRKLVRGLEEEPEGGDRCQVCFDYRLDKTAQVAMDLGFDYFGSALTISPHKNSQTINSIGIDVQKIYTTHYLPSDFKKNQGYKRSVEMCEEYDIYRQCYCGCVYAAQAQNIDLVQVKKDATAFLLDKDVEKDYSHIKFTVTKLDI”: the “soluble on expression in E. coli” value is on record as “not soluble”.

As for “MKGMFTPGNGPVQISAEAIKKRVEELGGEIARDYQGKTPHLICVLNGAFIFMADLVRAIPLPLTMDFIAISSYGNAFKSSGEVELLKDLRLPIHGRDVIVVEDIVDTGLTLSYLLDYLEARKPASVRVAALLSKPSRRQVEVPIHYLGFEIEDAYVYGYGLDRAQFDRNLPFITSIRPEEE”, the “soluble on expression in E. coli” value was “soluble”.

Regarding “MGSDKIHHHHHHGEDSEGSGTSGISPGGNSVSEEVLKHRSMVEKYAKESDILDYVPILLAIIQVESGGTMEDVMQSSESAGLPPNSLSTEASIKQGCIYFASLVKSSKELGCDQDSIIQAYNYGGGYLNYVAKNGKKHSFTLAESFSKEKSGGQKVDYPNPIAIKENGGWRYNYGNMFYCLLVKQYLTTTQFDDKTVQGIFDEAFKYEGTAYVFGGSSPATGFDCSGLTQWCYAKVGLKLPRVAQDQYDVMTHIDLKDAKPGDLIFFHSTYDAGTYVTHVGIYAGENRMFHAGNPVGWTNLTESYWQQHLIGAGRYN”, the “soluble on expression in E. coli” value is given as “not soluble”.

“MKYMIPDEEFIRREGVPITKEEIRAVSIGKLNLNKDDVVVDVGCGSGGMTVEIAKRCKFVYAIDYLDGAIEVTKQNLAKFNIKNCQIIKGRAEDVLDKLEFNKAFIGGTKNIEKIIEILDKKKINHIVANTIVLENAAKIINEFESRGYNVDAVNVFISYAKKIPSGHMFLAKNPITIIKAVR”: the “soluble on expression in E. coli” value is reported as “soluble”.

Take “DKDVLEVKLDKKEYKAGETATALIQSPYADAELYFAVIKDKPIYQQITKVQGSAPQIQFRVTPEMLPNAAVEAVLVRQGKPINQVEVGSLDNLVKIGFTPFKVNLEDKYLKLQVKPAQASLEPGAEETIQLEVKDNQGNPTKGQLTVMVVNEAVLQLSGY”: the “soluble on expression in E. coli” value is listed as “not soluble”.

For the sequence “MGSSHHHHHHSSGLVPRGSHMYLGRILAVGRNSNGSFVAYRVSSRSFPNRTTSIQEERVAVVPVEGHERDVFRNPYIAYNCIRIVGDTAVVSNGSHTDTIADKVALGMNLRDAIGLSLLAMDYEKDELNTPRIAAAINGSEAFIGIVTADGLMVSRVPEETPVYISTYEQTEPAATEFKAGSPEEAAEFILKGGEFAAFTHPVTAAAAFNDGEGWNLATREM”, the “soluble on expression in E. coli” value is recorded as “soluble”.

On to “MAHHHHHHMADLYDVLGILHDAEDDAIAKAYRRHSMAVNPQCNPDHPDPAALEKQFKHVSQAYVVLSNPKARGIYDLYGEEGVRHGGTGAQGIPGGIDLDAIDPYAVFRSFFGVDNPFQVIGEINGLRNNRHNFFSSTAVIPKSLVKAPSIEVQLPVTLEDVYYGAVRRASWKCSFVRQGNETVVEEFFELRVPKGAHAGDKFVVDGKGDWEEGRARGDVVVVLELLPHERFRREGDDLVVRVPITLREALCGVTLTVQTMEGTDVAVLIDEIVHPKYSRRVVGQGLPRNDEPSNPRGDLIVECDTTFPGFLTLEQKSELSRILDAK”, for which the “soluble on expression in E. coli” value is “not soluble”.
